Assay results: US20200048372A1 (UCB, published 2020)

B1: FabB-645dsFv (S3xG4S) with Fv heavy mutation T100aA (bispecific antibody, part only; not given: anti-OX40 Fab and linkers, V domains shown, not shown: another chain or arm of the molecule; large carriers; small tags and cut ends)
VH: EVQLLESGGGLVQPGGSLRLSCAVSGIDLSNYAINWVRQAPGKCLEWIGIIWASGTTFYATWAKGRFTISRDSTTVYLQMNSLRAEDTAVYYCARTVPGYSAAPYFDLWGQGTLVTVSS
VL: DIVMTQSPSSVSASVGDRVTITCQSSPSVWSNFLSWYQQKPGKAPKLLIYEASKLTSGVPSRFKGSGSGTDFTLTISSLQPEDFATYYCGGGYSSISDTTFGCGTKVEIK
modifications: Interchain disulfide between VH Cys44 and VL Cys100 (Kabat) of the dsFv
B2: FabB-didAb, -dAbL1 (CK-G4Sx2) & dAbH1 (CH1-G4Sx2) (bispecific antibody)
heavy: ASTKGPSVFPLAPSSKSTSGGTAALGCLVKDYFPEPVTVSWNSGALTSGVHTFPAVLQSSGLYSLSSVVTVPSSSLGTQTYICNVNHKPSNTKVDKKVEPKSCGGGGSGGGGSEVQLLESGGGLVQPGGSLRLSCAVSGIDLSNYAINWVRQAPGKGLEWIGIIWASGTTFYATWAKGRFTISRDSTTVYLQMNSLRAEDTAVYYCARTVPGYSTAPYFDLWGQGTLVTVSS
light: RTVAAPSVFIFPPSDEQLKSGTASVVCLLNNFYPREAKVQWKVDNALQSGNSQESVTEQDSKDSTYSLSSTLTLSKADYEKHKVYACEVTHQGLSSPVTKSFNRGECGGGGSGGGGSDIVMTQSPSSVSASVGDRVTITCQSSPSVWSNFLSWYQQKPGKAPKLLIYEASKLTSGVPSRFKGSGSGTDFTLTISSLQPEDFATYYCGGGYSSISDTTFGGGTKVEIK
notes: also called FabB-645Fv (G4Sx2); FabB-645Fv (2xG4S)

Experiments:
human serum albumin [1] = target: T1, human serum albumin (human, UniProt P02768 25-609); assay: SPR (Biacore)
T1 construct: also called HSA; HumanSA

human serum albumin [2] = target: T1, human serum albumin; assay: SPR (Biacore), purified construct captured, HSA injected
mouse serum albumin = target: T2, mouse serum albumin (mouse, UniProt P07724 25-608); assay: SPR (Biacore), purified construct captured, MSA injected
T2 construct: also called MSA; MurineSA

Binder	Kd (human serum albumin [1])	koff (human serum albumin [1])	kon (human serum albumin [1])	koff (human serum albumin [2])	koff (mouse serum albumin)
B1	51.6 nM	0.0186 s⁻¹	360000 M⁻¹ s⁻¹		
B2				0.000206 s⁻¹	0.000182 s⁻¹
